Data set [1] has as its system anti-T. gondii IgG antibodies of mice. Nature of the data set: Western-blot BCLA serological testing on mice sera. The data set is classed as binding. The method, then:
Mice and Experimental Infection. 6-weeks-old BALBC/c, CBA, NMRI or Swiss mice were obtained from Janvier Laboratories (Le Genest-Saint-Isle, France). Mouse care and experimental procedures were performed under pathogen free conditions in accordance with established institutional guidance and approved protocols from the Institutional Animal Care and Use Committee of the University Grenoble Alpes (agreement no B3851610006). Female mice were used for all studies. For intraperitoneal (i.p.) infection, tachyzoites were grown in vitro and extracted from host cells by passage through a 27-gauge needle, washed three times in PBS, and quantified with a haemocytometer. Parasites were diluted in Hank's Balanced Salt Solution (Life), and mice were inoculated by the i.p. route with tachyzoites of each strain (in 200 μl) using a 28-gauge needle. For oral gavage of infective cysts, brains from chronically infected mice (76k-GFP-luc and 76k-GFP-luc-Δbcla) were crushed in PBS, the number of cysts was microscopically quantified and the mice were forced fed with 100 μl of brain homogenate containing 20 to 40 cysts using ball-tipped feeding needle. Blood was collected by caudal puncture or by intracardiac puncture when the mice were euthanised. Animal euthanasia was completed in an approved CO2 chamber. For histological analysis of ileum and immunolabeling on histological sections of brains or, the ilea and brains were removed from mice, entirely embedded in a paraffin wax block and cut in 5 μm-thick layers using microtome. For statistical analysis of mice survival data, the Mantel-Cox and Gehan-Breslow-Wilcoxon tests were used.
Western-blot BCLA serological testing. Single western blot strips were prepared using 15 well 4-12% NuPage gels (Life technologies) loaded with 5 μl of sample at 0.1 mg/ml. The gels were run at 185 v for 40 minutes in MES buffer then electro-transferred at 105 v for 1.5 h on PVDF membranes. The transferred lanes were then cut-out into individualized strips. The strips were then blocked in TTBS with 5% powdered milk (w/v) for 1 h. Serum testing was then performed in TTBS with a dilution of 1/400 of the serum for 1 h at 4° C. The strips were then washed 3 times in TTBS and further incubated 1 h with a 1/7500 dilution of secondary antibody targeting either mouse IgGs or human IgGs and coupled with a phosphatase alkaline enzyme (Promega). […] Bands in the positive sera appear within 1 to 5 minutes. In parallel to the serum testing, a single strip was always used as an internal antigen control for each blot set. After blocking, this strip was incubated for 1 h with a peroxidase coupled anti poly-histidine monoclonal antibody (Sigma) diluted 1/2000 in TTBS. […] For each series of i.p. or orally infected mice, a serum of at least on mouse of each series was checked for Toxoplasma antibodies using Western blot analysis of the IgG immune response using the commercial kit LD bio Toxoplasma mouse IgG (LD bio), with the same anti-mouse IgG-alkaline phosphatase conjugate and chromogenic substrate previously described for BCLA.

The subject of data set [2] is trypsin, chymotrypsin, elastase and papain. As to the kind of experiment: Limited proteolysis of rBCLA. The settings on record: 1/30 w/w, up to 50 minutes at 37° C. The data set is classed as physicochemical. The method, then:
Limited proteolysis to find antigenic sub-fragments within Cter-BCLA. To recover a highly antigenic sub-fragment of Cter-BCLA, a limited proteolysis on the purified sample was undertaken using trypsin, chymotrypsin, elastase and papain (all Sigma Aldrich). Reactions were carried out in 30 μl reaction volume in 50 mM Tris pH 8.0, 150 mM NaCl, 5 mM BME and 0.5 mM MgCl2. In each reaction, 3 μg of Cter-BCLA were digested by 100 ng of protease (1/30 w/w) over the course of 50 minutes at 37° C. Reactions were stopped at each time point by the addition of 10 μl of SDS PAGE loading buffer followed by 5 minutes heating at 95° C. then kept on ice until loading on the gel.

The nature of data set [3]: Solubility of rBCLA recombinantly expressed in E. coli. The data set is classed as physicochemical. The settings on record: native, N-terminal poly-histidine tag. The method, then:
Recombinant expression. Transformation was performed using BL21(DE3)-CodonPlus—RIL chemically competent E. coli (Stratagene) which were incubated on ice with 1 μg of the pet30-(a) Cter-BCLA plasmid for 10 minutes, heat shocked at 42° C. for 45 seconds, pre-incubated 45 min in LB at 37° C. then spread on a LB agar plate containing Kanamycin (Kan) and Chloramphenicol (Chlo) and incubated for 12 h. A single colony was then picked to inoculate a LB/Kan/Chlo 50 ml pre-culture grown for 16 h. 5 ml of grown pre-culture were then used to inoculate 1 L flasks of Terrific Broth medium (Formedium) containing Chlo/Kan. Cultures were grown at 37° C. until reaching an OD600 of 0.5-0.8 then induced by adding 0.7 mM IPTG (VWR) and further incubated at 18° C. ON. After incubation, cells were centrifuged 25 min at 3000 G, the supernatant was discarded and the pellet flash frozen in liquid nitrogen and kept at −80° C.
Lysis. Purification was performed on 3 pellets of 1 L cultures, each resuspended in 50 ml of lysis buffer containing 600 mM NaCl, 50 mM Tris pH 8, 5 mM Beta-mercaptoethanol (BME), 0.2% w/v N-Lauryl Sarkozine and 1 Complete anti protease cocktail (Roche) tab per 50 ml. Lysis was performed using a 10 mini-pulsed sonication (15 sec ON, 30 sec OFF) at 50° amplitude over ice with the lysate never reaching a temperature over 13° C. […]

Data set [4] has as its system anti-T. gondii IgG antibodies of mice. Nature of the data set: Western-blot BCLA serological testing on mice sera. The data set is classed as binding. This is another data set of the same source.

We go through one molecule from US20220390449A1, “NEW S[…] FOR THE LATENT FORM OF TOXOPLASMOSIS” (INSERM (INSTITUT NATIONAL DE LA SANTÉ ET DE LA RECHERCHE …, priority 2019, published 2022).

B1: rBCLA: C-terminal antigenic domain, res 1089-1275 of BCLA (SEQ ID NO:2), expressed in E. coli as recombinant protein (protein)
chain: MIPGVGDKTEASVLDSIENAVQKVLENLLKAAAGELQPAEAEEARLLVADLKAVVDTAEQVRVEGEAFFRASVDLYEAVKNLRDSEEKLRPLTKGELVDVVRQFLATQIFVQDRASAFLRVFERLAELLAAEQMKAVFAMVEEGVSSSERVARVAGELVPMMKKDRERRYGDLVAVTSWFMRRMEHI
modifications: Synthetic C-terminal antigenic domain (res 1089-1275)
Regarding B1, the “reactivity of rBCLA with mice sera (immunoblot)” value (shortened to “reactivity … (immunoblot)”) is listed as “not reacting” in data set [1] (FIG. 8a: NMRI mice, i.p. 10^4 tachyzoites COUG and COUG-Δmyr1, 7 days (acute)); “not reacting” in data set [1] (FIG. 8b: CBA mice, i.p. 10^3 tachyzoites RH (type I), 7 days (acute)); “reacting quite proportionally” in data set [1] (FIG. 9a: Balb/c mice, i.p. 10^3 to 10^6 tachyzoites PruA7 (type II), 42 days); “strongly reacting” in data set [1] (FIG. 9b: CBA mice, i.p. 10^6 tachyzoites ME49 (type II), 80 days); “strongly reacting” in data set [1] (FIG. 9c: NMRI mice, oral 20 cysts 76k-GFP-luc (type II), 22 months); “very slightly reacting” in data set [1] (FIG. 9e: CBA mice, i.p. 10^3 tachyzoites RH (type I) followed by pyrimethamine or sulfadiazine treatment, 22 days). The “reactivity … (immunoblot)” value is given as “not reacting” in data set [1] (FIG. 9f: NMRI mice, i.p. 10^6 tachyzoites CTG (type III), 42 days); “not reacting” in data set [1] (FIG. 9g: NMRI mice, i.p. 10^6 tachyzoites PruΔku80 (type II), 42 days); “strongly reacting” in data set [1] (FIG. 11a: Swiss mice i.p. infected with T. gondii PCR positive human amniotic fluid (confirmed congenital toxoplasmosis)); “strongly reacting” in data set [1] (FIG. 9h: Balb/c mice, i.p. 10^5 tachyzoites 76k-GFP-luc (type II), reactivating or not with corticosteroids, 42 days); “strongly reacting” in data set [1] (FIG. 9d: Balb/c mice, i.p. 10^6 tachyzoites 76k-GFP-luc (type II), 21 days); “barely reacting” in data set [1] (FIG. 9d: Balb/c mice, i.p. 10^6 tachyzoites 76k-GFP-luc-Δbcla (type II), 21 days). Moreover, the “reactivity … (immunoblot)” value in data set [4] (FIG. 8c: C57BL/6 mice, oral 47 cysts 76k-GFP-luc or 76k-GFP-luc-Δbcla (type II), 8 days (acute)) was “not reacting”. For the same molecule, the “degradation by protease (SDS PAGE)” value was “quickly degraded” in data set [2] (chymotrypsin); “partially degraded” in data set [2] (elastase, trypsin and papain, stable fragments around the 17-kDa marker). The “solubility on expression in E. coli” value in data set [3] was “natively insoluble”. Besides, in data set [4] (mice sera, data not shown), the “reactivity of rBCLA with anti-T. gondii IgM and IgA” value was “not reacting”.
